From the supplement of paper PMC10126150
± gives the standard deviation of the averaged measurements.

Test system: ATP
Test: switch fluorescence ratio, 500 uM ATP over buffer (Cy3 cluster intensity, sum of 5 cycles each) (fold (ratio)); higher = stronger signal-on switching upon ATP binding; sequences stand for … in TCGTCGGCAGCGTCAGATGTGTATAAGAGACAGTTTTTTTTTTTTTTTTTTTTTTTTT…TC
Conditions: aptamer strand: ATP DNA aptamer (quencher-CACCTGGGGGAGTATTGCGGAGGAAGG + anchor), 100 nM annealed; ATP concentration: 500 uM
Procedure, shortened: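 Cy3-labelled switching-strand clusters on a modified Illumina MiSeq flow-cell were annealed to 100 nM quencher-labelled ATP aptamer and imaged first in selection buffer, then after 15 min with 500 uM ATP at 22 °C. NaOH stripping and re-annealing separated each of five buffer/ATP cycles, and clusters outside 100-1000 RFU were excluded. The fluorescence ratio sums target-cycle Cy3 intensity over buffer-cycle Cy3 intensity per cluster and averages it per switch-domain sequence.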
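Also: ATP exposure 15 min at 22 °C before imaging.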

Sequence | switch fluorescence ratio
GAGGGCAATG | 1.22 ± 0.067
GAGGGCACTG | 0.956 ± 0.023
GAGGGCCAGG | 1.13 ± 0.076
GAGGGCCTGA | 1.01 ± 0.012
GAGGGCGGGG | 1.05 ± 0.077
GAGGGCTAAA | 1.06 ± 0.082
GAGGGCTACT | 1.04 ± 0.041
GAGGGCTTTG | 1 ± 0.031
GAGGGGAAAT | 0.999 ± 0.029
GAGGGGAGAG | 1 ± 0.016
GAGGGGAGCT | 1.01 ± 0.045
GAGGGGAGGC | 1.29 ± 0.39
GAGGGGCACG | 0.935 ± 0.1
GAGGGGCCAG | 0.988 ± 0.027
GAGGGGGATC | 1.02 ± 0.035
GAGGGGGCAA | 1.01 ± 0.016
GAGGGGGGGG | 1.01 ± 0.039
GAGGGGGGTC | 1.04 ± 0.064
GAGGGGGTGG | 1 ± 0.064
GAGGGGTTCT | 0.984 ± 0.043
GAGGGTAATA | 1.01 ± 0.017
GAGGGTAGTT | 1.031 ± 0.0055

Sequence | switch fluorescence ratio
GAGGGTCGGG | 0.988 ± 0.033
GAGGGTGGGG | 1.01 ± 0.04
GAGGGTGTCA | 0.995 ± 0.017
GAGGGTTAC | 1.006 ± 0.0062
GAGGGTTGCT | 1.01 ± 0.036
GAGGTAAAGC | 1 ± 0.08
GAGGTAATC | 1.02 ± 0.037
GAGGTAGAGG | 0.986 ± 0.026
GAGGTAGATG | 0.991 ± 0.0012
GAGGTAGTGG | 0.968 ± 0.027
GAGGTATCAT | 0.9847 ± 0.0073
GAGGTATTTT | 1.34 ± 0.65
GAGGTCGTGA | 0.975 ± 0.019
GAGGTGAAGA | 0.979 ± 0.046
GAGGTGAAGG | 1.04 ± 0.055
GAGGTGAGG | 0.989 ± 0.011
GAGGTGGTAG | 0.951 ± 0.034
GAGGTGGTTA | 0.976 ± 0.015
GAGGTGTAGC | 1.01 ± 0.028
GAGGTGTTTT | 1.01 ± 0.06
GAGGTTACGC | 0.988 ± 0.053
GAGGTTAGCT | 0.976 ± 0.046

Sequence | switch fluorescence ratio
GAGGTTAGGT | 0.981 ± 0.01
GAGGTTATAG | 0.998 ± 0.02
GAGGTTATTG | 0.99 ± 0.025
GAGGTTCTAT | 1.0012 ± 0.00094
GAGGTTGTCA | 0.958 ± 0.038
GAGGTTGTG | 1.01 ± 0.025
GAGTAAGTA | 1.002 ± 0.0064
GAGTAATGCT | 1.27 ± 0.017
GAGTACAAAG | 1.02 ± 0.0041
GAGTACAGCT | 1.01 ± 0.018
GAGTACTGTA | 1.14 ± 0.053
GAGTAGAGGG | 0.954 ± 0.014
GAGTAGCATG | 0.993 ± 0.022
GAGTAGGAGC | 1.02 ± 0.033
GAGTAGGCTA | 0.973 ± 0.035
GAGTAGTGCT | 1.03 ± 0.018
GAGTAGTGGG | 0.982 ± 0.037
GAGTAGTGTT | 0.984 ± 0.02
GAGTAGTTGT | 0.9969 ± 0.0083
GAGTATGAGA | 1.009 ± 0.01
GAGTATTAGG | 1.02 ± 0.0094
GAGTATTTTC | 1.015 ± 0.0065

Sequence | switch fluorescence ratio
GAGTCAGAGG | 0.989 ± 0.039
GAGTCAGC | 1.08 ± 0.14
GAGTCAGTAT | 1.03 ± 0.039
GAGTCGAATT | 0.9738 ± 0.0058
GAGTCGGATG | 0.967 ± 0.012
GAGTCTTTGG | 0.973 ± 0.021
GAGTCTTTTG | 1.013 ± 0.0096
GAGTGAATTT | 1.0074 ± 0.00014
GAGTGAGACT | 1.02 ± 0.072
GAGTGATAAG | 1 ± 0.017
GAGTGCGCTG | 1.02 ± 0.04
GAGTGCGGAT | 0.98 ± 0.026
GAGTGCTATT | 0.981 ± 0.013
GAGTGGAGTG | 1.02 ± 0.079
GAGTGGGATT | 0.981 ± 0.011
GAGTGGGGTT | 1.011 ± 0.0024
GAGTGGGTCG | 0.983 ± 0.024
GAGTGGTAGG | 1.01 ± 0.021
GAGTGTAGTC | 1.06 ± 0.011
